Molecular target: the molecule itself
Assay: cryo-EM structure; CPMV eVLP purified from N. benthamiana leaves, ~4.2 mg/ml on the grid; single particles, icosahedral symmetry imposed; 3.04 Å; atomic model built de novo

B1: Cowpea mosaic virus Small (S) coat protein with its C-terminal extension, in the empty virus-like particle (eVLP) (natural protein)
chain: GPVCAEASDVYSPCMIASTPPAPFSDVTAVTFDLINGKITPVGDDNWNTHIYNPPIMNVLRTAAWKSGTIHVQLNVRGAGVKRADWDGQVFVYLRQSMNPESYDARTFVISQPGSAMLNFSFDIIGPNSGFEFAESPWANQTTWYLECVATNPRQIQQFEVNMRFDPNFRVAGNILMPPFPLSTETPPLLKFRFRDIERSKRSVMVGHTATAA
notes: Small (S) coat protein of cowpea mosaic virus, cut from the RNA-2-encoded precursor VP60 by the 24K proteinase; C-terminal 24 amino acids (190-213) kept; modelled up to Arg202, without 184-189; numbers count on: the S subunit; the particles imaged kept it; also called S subunit; small coat protein; source: N. benthamiana, agroinfiltrated with pEAQ-HT-VP60 and pEAQ-HT-24K or pEAQexpress-VP60-24K; …
- stoichiometry N: 5
